Protein production data for 22 sequences are collected here from a protein production outcome set (Wang et al. 2014).

This series can be described thus: label from the status in PepcDB records.
In the case of “MNAIPRVALVWLLVAQVLVILPHLAYMPLWIAAMWLGCAAWRVQVFRMRAGYPRAWVKLALALLAGAGVWLSRGSLVGLDAGAVLLIAAFILKLVEMKTRRDALVLVFLGFFAVVVGYLFDDGFLAALYSLLPVTALLAALIGLQQSAFASRPWPTLRLAGGLLLQALPLMLLLFLFFPRLGPLWSLPMPGNKGVTGLSESMAPGDIAELGRSAELAFRVRFEGALPPREQLYWRALTMERFDGRRWAQAPQWSGEDALHWQKRGPELRYDVIMQPSSQPWLFALDVAQTDQTDTRLMSDFHLQRRQPVEQRLFYRVSSWPQALRESSIDPRTRWRNLQLPMHGNPRARALADELRQAHAQPQALVAALLQRFNHEPFAYTLKPPATGADGVDDFLFDTRSGFCAHYAGAMAFVLRAAGIPARVVAGYQGGELNPAGNYLLVHQFDAHAWVEYWQPEQGWLSVDPTYQVAPERIEQGLEQALAGDSEYLADAPLSPLRYRGLPWLNDMRLAWDSLNYGWQRWVLAYQGEQQGAFLQRWFGGLDPTRLGLLLGAAAILSVGLLALFLLKPWQGRGDLRSRQLRRFERLLEMHGLRRSPGEGLRSYGERAARVLPAQAPAIAAFVGAFEAQRYGHGGADDPGLRLRALRRALPWRLVRTPTRDGRGEEQA”, the protein production result is listed as “failed”.

“MNSENHPATTFKSRIKSSLPYTLAVAIIGFVSLWVRMRPYDHVFLSNGFVKFTSNDPWYHIRTLNVLLENYPQRMFFNPMTNYPYGSYIHFGPLYDQMMAITSLILGLGSPSQDLINTVGAYFPAVLGALTVIPVYYIGKYLGGRKTGILAAVFIAFAPGQFLSRSLIGFTDHHVAESLFSTFFMMFFMLAIITAKKKNLRFEDLFNKNFIVVKEPLIYSIIAGVMYSAYQLSWPGASLFLFIALVYAVVQYILDNFNGESSDYLGFTGIITFLVSAILILPFIHPELGFSMYYYTWFHVATAIGTMAGFAALSLIQREFKNRNLKAYYYPLAIFLLGFLGLLAIRFASPSVYSLIISAPNTVFGVLTGGAATIGEVSSMFYYGGTFTLSRAFGNFTVSGFFASIIGLIILLVSVIRKAKPEEVLVLVWSILMLFAIYGQNRFAYYYSINVSILSAYIGGLLLEKVKWNELDEKFKSSVKSPADIPGFLKSFRAKQVLAVLAIAVFLIYPVYGAAMVQSTGSNDPDWAWIEACLWLKSSTPDPGMDYNAIYEAPEDGKLFDYPESAYGVMSWWDYGHYIETLGHRMPNANPFQAGIGGRRGSINETNVPGAAPFLTAQSEEEATEVLESIHPDPEKSGARYIMSDERMAVDIFMAMPEWTLDTEGYMQPYWTGDGYQYLPSKRYFDSMESRLHFLDGNGLKQYRLVYETWAYQTQEAGYKQVYNFLYGSSIPEVDSGYVKIFEYVKGAKITGTVSPNETVNINTTILTGQGRTFEYSQSTSSDSEGRYEFIVPYSTEGPIPGETQFDTAPTGAYVVSYGDTTTEVRVSEEAVLNGEEIKV”: the protein production entry is on record as “failed”.

Regarding “MENKRNVCSLGESSIKRHKSDLSFSSKERKDKVGERISALQQIVSPYGKFPCSFVQVLSAPYLQTVPDATQEELEQYSLRNRGLCLVPMENTVGVAQSNGADIWAPVKTPLSPAFSVTSQSPFR”, the protein production result is “failed”.

As for “MDIEVDIIEFKVPLENNKTIFIWDIQPTFTEAYIYESLWSVYSAFGDLYLLKVCPNATVAEPGFYALVKFYSSAQASKAQRATDKQCLFQSSPLKVRLSTKQNLSFYSSKPLCLSKCHNLANHYLGFGGWTTRIVTLKDLSNCVDAGCQEETGDQGVLLKYGCIMELSFPHHGMSCQGVGVAEEVLDSDQDPEEKLRKRGALMKRAKDKAMEVAFEKVLLLILGNGKVAIEIKIDPDEIVPEENSERVIKVNDISWTHIESADSNAEEDFLWDLTEDLPY”, the protein production result is recorded as “failed”.

With “MNREEVLKQLQSIFRDILKKDNVCIDESSTSKDVDGWDSLTHMQIIAQIEKHFGVRFNFREVIKFKNVGDLCSALLTKMELEHHHHHH”, the protein production result is listed as “not failed”.

In the case of “MEKLENFWTRDELNTFFDYVTPERDVEQFTMFRVLAYSGIRKGELLALTWKDINFEDNTLRVNKTLTQGLGGKLIVQPPKSRAGRRTIDLDDSTMRYLRQWKGVQRETFLGMGFNTNNVDQLVFASNRNHFRSMNTPTKWLNKAIKATGLKHISIHGFRHTHASLLYQSGVGLKETQQRLGHSRADSSVTLDVYTHTTEQQNVAALQRFENYVEAKLEHHHHHH”, the protein production entry is “failed”.

With “MMIMNNFDEKKLIQEFSKIQSELSPRIKLENNFQIEEIQFIAGVDLAYWNVNKTKYGTCCIVIIDYGTKEVVEKVYSYGEIPIPYIPGFLAFRELPLIIEAVKKLTKQPDIYFFDGNGYLHYRHMGIATHASFLLNKPTIGVAKSYLKIRDVDFIMPENLKGSYTDIVINNEVYGRTLRTTKNVKPIFVSCGNWIDLDTSTEIVMNCINNESRLPIPVRLADLETHKMRKKLMEGLEHHHHHH”, the protein production entry is reported as “failed”.

Consider “LAALCPVAVPSGVQIYTIDGPLFFGAAATFERTLAGLHDQAEAVIFRLGRVPFADATAMHALDDVVRHFRQRHIEVRVCEANPRVAHKLREFGLLARIGQQDASISVLDALAELAPQPGTQVQAEAS”, for which the protein production entry is listed as “failed”.

For the sequence “MKYLLIFLLVLAIFVISVTLGAQNDQQVTFNYLLAQGEYRISTLLAVLFAAGFAIGWLICGLFWLRVRVSLARAERKIKRLENQLSPATDVAVVPHSSAAKE”, the protein production entry is “failed”.

For “MFKTVIIMLMAVSAGTIGDILLAKGMKELGDLSAMNLRGILNVAGQALTSPKLIFGTAMLAIFFFLWLAVLSWEDLSVALPMQALNYVLVAFLSQWFLGETVSPLRWTGTIMVCVGVMLITKSGTP”, the protein production result was “failed”.

In the case of “MTSSINSSPLNAIADQALGLDDAAVPAAIEPASDEPSFASLGLSPEIVSALEAAGYVKPTPVQQRAIPAGIAGRDLLVSSPTGSGKTAAFMLPAIERFAQLQKTLAQQPRTPREPSQGDRRVRRPQPVARPGLLVLTPTRELAMQVTTAASTYGKHLKRLRTVSILGGVAYGQQLMLLAKNPEILVATPGRLLDHLERGRIDLSELKMLVLDEADRMLDMGFIDDIETIVAATPASRQTMLFSATLDGKIGSLTGRLLKDPERIEIQQRLESRTNIAQTVHYVDDRDHKDRLLDHLLRDDALDQAIIFTATKIDADQLAGRLADAGFESAALHGDLPQGARNRTIRALRERRVRVLVATDVAARGIDIPGITHVFNYDLPKFAEDYVHRIGRTGRAGRSGTAVSLVHHAEQGALKRIERFVRSPLPVNVIEGFEPRKAPARTGSTGGRGRPGGGNGGRRFGGKPGGGHAGAGRSYGGGNGGGWSGKPSGSRDGGPRRDGQRSSGPRRSNSAS”, the protein production result is “failed”.

Turning to “MSQSPILFFQHGMGESNQNMQILAGRVASENAYVVVPNLNLLTTFLNLDPLIEVVERSASETLNDFPQSTFSVVGFSMGGILWVEVLSRNPSWLERLDALVLIGSPIQGASLARTVDLFGWGIGIAQELGRNRQYLAEKITQKIPTLVIAGSVNGGGDGVIPIESTRLNGTHFFTRNNVKHQDLPIDLIIGEKVKSFLLHPYLIPS”, the protein production entry was “failed”.

For “MPGFEVLYQAAALCLTYPDDDFRARLPLLREAAPQLRGFTDHAAATGQGELQAHYVEVFDFRNRHSLYLSWWTDGDTRNRGMSLVRFKELYRAHGLEFTGEELPDFLPAVLEFVSRTGDMGMLTEHRDALDQLRARLTAFGTPYACVLDAVCATLPPAPTGARR”, the protein production result is “failed”.

Turning to “MKLEIGYNHPFEIRKERYESDHVCNFSVLYISDLHLTVFSKDICTRLSKCIQELNPTIIILGGDYIDCRNGWDYLSTFFKFLSARKNVFSIAGNHDYFYGIDEIKKLIESNNIHWLENQSAVVNIQEYNILLTGNNETQSSIPADFNILCLHKPVSLDAFKIPYHIAFAGHLHGCQCVFWQNENGLYPGRFFYTFNFLRRQVKNCLYLISKGLGDTLPIRFNCKKDIIFVEIKNNSNKLEHHHHHH”, the protein production result was “failed”.

“MGLSVGIVGLPNVGKSSTFNALTKTQNAQSANYPFCTIEPNKAIVNVPDRRLDALAQIVKPERILHSVVEFVDIAGLIKGASKGEGLGNQFLANIKECEVILQVVRCFEDDNITHVNDKIDPLNDIETIELELILADIAALDKRIDRLQKALKSSKDAKNLLECALSLKTHLEELKPAKTFPLNTSEAFLELDKELRFLSHKKMIYVANVGEEDLNALNEHAKKVKNHAKEQNSEFVALCAKLEEEMVSMSGDEVKEFLQSLGVEESGLEKTIRLSFKELGLINYFTAGVKEVRSWTIKKGSSAPVAAGVIHKDFEKGFIRAETISYDDFIAYKGEAGAKEKGALRIEGKDYIVQDGDVLHFRFNI”: the protein production entry is recorded as “failed”.

Take “MKVSIIVPCYSVASKLPRCVHNLLAQTFTDWELILIDDGSTDNTWDICNSFTKNNAHIHAVHKENGGVSSARNTGIEIAKGEFITFIDSDDYVKPDYLQKLVEGQEADLVLCGFRSSTGIDFTPEPQYLIGDDLSKNIQAIVENDYLLYSPWCKLFRRDIIQKHQHRFDPEIRLGEDTIFCYKYLLYCSSIKVVASNSYFYDGVWGGYKKYVLTRQEVEYLDKAEITTLHDINQHFNCRIDLTYRGYHVAMLKGLYEKFRDYDTFEMYTRTHDVLPPEHFFANHKLSYIFWGIVELETLYVDKEYCAGKLFMQRLHHFFTIPTNQLLSYSYKMRLIHYLVKSKHYTMAHVLLIFLSILKHLEHHHHHH”: the protein production entry is “failed”.

“APRSVAMVVPQGSDIRQLSDLRGKRIALNKGSNVHWLLLQILEDAGLGLNDVRVVYTPPKYPLTASDYLAVDAWMMWDPLLSDAEHTGELRVVASGEGRVNNHQFYLSRRDYLAQHGDIMRRLLTELTHTGQFIDSHRGEAARLLSAELGI”: the protein production result is given as “failed”.

Consider “MSAIPENANVTVLNKNEKKARELIGKLGLKQIPGIIRVTFRKKDNQIYAIEKPEVFRSAGGNYVVFGEAKVDNFTQKLAAAQQQAQASGIMPSNEDVATKSPEDIQADMQAAAEGSVNAAAEEDDEEGEVDAGDLNKDDIELVVQQTNVSKNQAIKALKAHNGDLVNAIMSLSK”, for which the protein production entry is recorded as “failed”.

As to “MIIHTLHRYILRNLLVGLAVGSVALIVLIWLINSLKFLDWFVNKGLSVATFLRLTLLLMPGFLTVFIPIALFAVVLFTYNRLAADRELIVMRAAGMGPWQLARPALALCAVLTGVGYWLTLSVVPAMEGAFEAIKYEVRGEVSSLVIKEGQFNQMKDGLIVYAGERAKDGRLIDLMIHDTTGKTSDLTVMAESGALVREGEGARILLINGNRQERNRQTGKVNFLYFDSYAVDLGGKAASTEMRFREERERPLSELISLKAGDRIDPDYPFTYEERHIRRMRMEAHLRLLRPLAHIGFLLIGLAAVLTGEFDRRGGNKRVILAVALVVLFQAGSLGAATVAKKSLDGLLLLDLMTLLPILVGWIWLVWPSERWGRRRLAPRRGRTAAPALGGGAGR”, the protein production result is “failed”.

Turning to “MKLTIIRLQHFSDQDRIDLGKIWPSQDLSTLTLDENHRLYAAHFNERLLGAVRVTLRGVEGELSDLCVREVTRRRGVGQYLVEETLRDNPAINSWRVADHGVEDRGVMAAFMQALGFSAQQNGWEKH”, the protein production entry is given as “failed”.

Turning to “MLKKGNEMKAVIVYASVHHGNTKKIEEAMASVISADVIDVTRKIKPDLSGYDVIGFVSGVYFHTFHEGIKKCIEENMSSKGQKVFLVATCGLGYRDYTKGMKDTLAKKDVLCMGSFQCRGWDTYGIFGKIGGIAKKHPNDRDLKEAQEFVLKTVCKTNLEHHHHHH”, the protein production result is listed as “not failed”.

With “MKTSVIISTYTKERYKDVLRCIESVRHQSLKPYEILLILDPVKSLVEYYKNIVPKDVRVVVSDGFGLSKARNKGVFEAKGDIIAFIDDDAWADDLWLEKIVENYSDEGVYGVGGKIIPVFENGRPKWLPEELDWIVGCTYKGMPEQRTNIRNPIGANMSFRREAFEIAGPFRSEIGRYGKKLLSGEEAEFAMRLRKIKPDAKIIYEPSAVVYHKVPKSRVRISYAVKRAFYEGYSKAILAKEFPLEMESKYLNFILRSILRKLLSKGQQIEALVMSVIVMTVGIGNLYGTCRILLRK”, the protein production entry is “failed”.
